From patent publication US20250325672A1
Non-standard residues stand in square brackets, D forms with d. No end group written: not given here. Sar = CNCC(=O)O

Assays:
[1] = target: wild-type (WT) S1 domain of the SARS-COV-2 Spike Protein (ACROBiosystems, S1N-C82E8) (SARS-CoV-2), P0DTC2; test: FP direct binding
[2] = target: COVID-19 S1 Spike Protein Mutant A475V (SARS-CoV-2), P0DTC2; test: FP direct binding
[3] = target: COVID-19 S1 Spike Protein Mutant E484K (SARS-CoV-2), P0DTC2; test: FP direct binding
[4] = target: COVID-19 S1 Spike Protein Mutant V483A (SARS-CoV-2), P0DTC2; test: FP direct binding
[5] = target: COVID-19 S1 Spike Protein Mutant L452R (SARS-CoV-2), P0DTC2; test: FP direct binding
[6] = target: COVID-19 S1 Spike Protein Mutant F490L (SARS-CoV-2), P0DTC2; test: FP direct binding
[7] = target: COVID-19 S1 Spike Protein Mutant G476S (SARS-CoV-2), P0DTC2; test: FP direct binding
[8] = target: COVID-19 S1 Spike Protein Mutant N354D, D364Y (SARS-CoV-2), P0DTC2; test: FP direct binding
[9] = target: Biotinylated 2019-nCoV (COVID-19) S1 protein (16-685), His, Avitag (SARS-CoV-2), P0DTC2; test: SPR, Biacore T200, geomean
[10] = target: COVID-19 S1 Spike Protein Mutant N501Y (SARS-CoV-2), P0DTC2; test: FP direct binding
[11] = target: COVID-19 S1 Spike Protein Mutant N439K (SARS-CoV-2), P0DTC2; test: FP direct binding
[12] = target: COVID-19 S1 Spike Protein Mutant Y453F (SARS-CoV-2), P0DTC2; test: FP direct binding
[13] = target: COVID-19 S1 Spike Protein Mutant K417N, E484K, N501Y (SARS-CoV-2), P0DTC2; test: FP direct binding
[14] = target: COVID-19 S1 Spike Protein Mutant A262S (SARS-CoV-2), P0DTC2; test: FP direct binding
[15] = target: COVID-19 S1 Spike Protein Mutant P272L (SARS-CoV-2), P0DTC2; test: FP direct binding

Binder	Kd [1] [nM]	Kd [2] [nM]	Kd [3] [nM]	Kd [4] [nM]	Kd [7] [nM]	also measured
CASPDNPVCRFYC (modifications not checked) [BCY16534]	381					
ACDVCGLNAFNRCA[Sar][Sar][Sar][Sar][Sar][Sar][KFl] (cysteine pairing not given here) [BCY16287]		54	55	69	58	Kd [5]: 53 nM; Kd [6]: 49 nM; Kd [8]: 1120 nM
CRNPDNPVCRFYC (modifications not checked) [BCY16905]						Kd [9]: 10 nM
CPYVAGRGTCLLC (modifications not checked) [BCY16312]	759					
ACRQSQCDWWAIRSFCA[Sar][Sar][Sar][Sar][Sar][Sar][KFl] (cysteine pairing not given here) [BCY15324]		629	1490	751	588	Kd [10]: 1260 nM; Kd [11]: 529 nM; Kd [12]: 366 nM
ACEDHDWVYCSTCA[Sar][Sar][Sar][Sar][Sar][Sar][KFl] (cysteine pairing not given here) [BCY15299]		710	475	988	944	Kd [5]: 548 nM; Kd [6]: 441 nM; Kd [10]: 935 nM; Kd [13]: 676 nM; Kd [11]: 531 nM; Kd [12]: 579 nM
CYNHANPVCRYYC (modifications not checked) [BCY16540]	> 883					
ACFDDWTCYIQMCA[Sar][Sar][Sar][Sar][Sar][Sar]K(Fl) (not fully specified; cysteine pairing not given here) [BCY15437]						Kd [14]: 15 nM; Kd [15]: 17 nM
